The values below are quoted from earlier work in article PMC3131494.

In the data set the target is eNOS (UniProt P29474).
Chain of UniProt P29474 (P29474 2-1203): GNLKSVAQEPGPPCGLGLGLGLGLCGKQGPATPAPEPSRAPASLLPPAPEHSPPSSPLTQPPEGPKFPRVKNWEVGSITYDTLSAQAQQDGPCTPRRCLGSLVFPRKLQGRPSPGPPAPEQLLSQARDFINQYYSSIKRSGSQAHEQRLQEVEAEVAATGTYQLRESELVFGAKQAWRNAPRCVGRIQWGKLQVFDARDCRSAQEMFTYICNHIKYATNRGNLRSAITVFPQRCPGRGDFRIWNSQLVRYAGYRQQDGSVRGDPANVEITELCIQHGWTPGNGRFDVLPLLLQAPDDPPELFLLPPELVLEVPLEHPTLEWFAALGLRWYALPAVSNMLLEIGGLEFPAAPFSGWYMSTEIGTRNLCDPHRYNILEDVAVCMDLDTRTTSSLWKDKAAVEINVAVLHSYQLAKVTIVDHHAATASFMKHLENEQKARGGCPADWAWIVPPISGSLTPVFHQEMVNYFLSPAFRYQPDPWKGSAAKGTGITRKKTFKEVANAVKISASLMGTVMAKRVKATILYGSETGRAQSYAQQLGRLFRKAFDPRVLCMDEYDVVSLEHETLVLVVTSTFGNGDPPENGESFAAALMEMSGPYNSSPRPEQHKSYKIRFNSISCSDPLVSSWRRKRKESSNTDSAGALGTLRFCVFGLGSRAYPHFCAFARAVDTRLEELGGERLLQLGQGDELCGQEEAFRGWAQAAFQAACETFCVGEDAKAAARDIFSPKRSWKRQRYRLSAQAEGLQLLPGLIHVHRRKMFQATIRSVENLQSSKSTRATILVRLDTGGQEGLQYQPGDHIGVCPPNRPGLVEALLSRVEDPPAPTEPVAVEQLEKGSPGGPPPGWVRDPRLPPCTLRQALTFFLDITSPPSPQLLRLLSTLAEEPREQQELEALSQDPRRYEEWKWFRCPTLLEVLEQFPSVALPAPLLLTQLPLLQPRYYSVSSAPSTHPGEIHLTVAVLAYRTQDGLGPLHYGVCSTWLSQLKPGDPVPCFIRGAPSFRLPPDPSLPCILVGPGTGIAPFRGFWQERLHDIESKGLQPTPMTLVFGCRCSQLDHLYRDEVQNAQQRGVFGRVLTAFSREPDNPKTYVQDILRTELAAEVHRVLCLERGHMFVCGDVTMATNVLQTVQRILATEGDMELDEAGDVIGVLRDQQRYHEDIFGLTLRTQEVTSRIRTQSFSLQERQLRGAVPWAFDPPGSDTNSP

Consider dynamin (from UniProt P50570), for which the Kd was 30 nM.

One may read the Kd as the constant that tells how readily two partners part at equilibrium.
